Source: the Immune Epitope Database (IEDB)

Legend:
Experiment in all cases: IEDB peptide-MHC binding, purified MHC/competitive/radioactivity; filed as Kd, often an IC50 or EC50 that approximates it; ≥ and ≤ were set here for values at or beyond the usual limits of such assays
HLA-A*02:02 = settings: source organism: Vaccinia virus WR
HLA-A*02:03 = settings: source organism: Vaccinia virus WR
HLA-A*02:06 = target: HLA-A*02:06
HLA-A*03:01 = target: HLA-A*03:01
HLA-A*11:01 = target: HLA-A*11:01
HLA-A*31:01 = target: HLA-A*31:01
HLA-A*33:01 = target: HLA-A*33:01
HLA-A*68:01 = target: HLA-A*68:01
[1] = source organism: Vaccinia virus WR
[2] = source organism: Dengue virus 1 Brazil/97-11/1997
[3] = source organism: SARS coronavirus Tor2
[4] = source organism: Mammarenavirus brazilense
[5] = source organism: Lassa virus Josiah
[6] = source organism: Mammarenavirus lassaense
[7] = source organism: Lymphocytic choriomeningitis virus (strain Armstrong)
[8] = source organism: Mammarenavirus juninense

Row | Sequence | Kd (HLA-A*03:01; [1]) [µM] | Kd (HLA-A*11:01; [1]) [µM] | Kd (HLA-A*31:01; [1]) [µM] | Kd (HLA-A*33:01; [1]) [µM] | Kd (HLA-A*68:01; [1]) [µM] | further results
1 | DLTALLSCI | – | – | – | – | – | Kd (HLA-A*02:02): 5.2 µM; Kd (HLA-A*02:03): 0.996 µM; Kd (HLA-A*02:06; [1]): 4.88 µM
2 | HQIFGTAYGV | – | – | – | – | – | Kd (HLA-A*02:06; source organism: Dengue virus 1 Nauru/West Pac/1974): 0.0206 µM
3 | IVAIDLDPV | – | – | – | – | – | Kd (HLA-A*02:06; [2]): 0.0112 µM
4 | ALFMYYAKR | 0.0123 | 0.0661 | 0.000449 | 0.0325 | 0.943 | –
5 | PLFDFVNEK | 1.94 | 0.413 | 1.22 | 5.52 | 0.222 | –
6 | IFNEDTSYY | 6 | 6.89 | ≥ 77.9 | ≥ 77.7 | ≥ 20 | –
7 | FLAVFQSATK | – | – | – | – | – | Kd (HLA-A*03:01; [3]): 0.0343 µM; Kd (HLA-A*11:01; [3]): 1.61 µM; Kd (HLA-A*31:01; [3]): 10.8 µM; Kd (HLA-A*33:01; [3]): ≥ 22.4 µM; Kd (HLA-A*68:01; [3]): 0.00881 µM
8 | KAGQNIRLSH | – | – | – | – | – | Kd (HLA-A*03:01; [4]): 1.68 µM; Kd (HLA-A*11:01; [4]): 12.8 µM; Kd (HLA-A*31:01; [4]): 5.26 µM; Kd (HLA-A*33:01; [4]): ≥ 70 µM; Kd (HLA-A*68:01; [4]): ≥ 70.1 µM
9 | ILQLIRHGR | 1.43 | 0.725 | 0.000975 | 0.00262 | 0.0752 | –
10 | FAEESYTYYY | ≥ 26.3 | 0.916 | ≥ 70 | ≥ 70 | 0.543 | –
11 | LFYTFAISY | ≥ 48.4 | ≥ 20.1 | ≥ 77.9 | ≥ 77.7 | ≥ 43.3 | –
12 | YTYDRVDIY | 0.741 | 0.000341 | 9.37 | ≥ 36.6 | 0.00191 | –
13 | NMVSDTIMKR | 4.18 | 0.12 | 0.307 | 0.827 | 0.092 | –
14 | VMNFIPIIY | 0.0587 | 0.0605 | ≥ 20.9 | ≥ 77.7 | 8.85 | –
15 | RFVEELLHR | 2.18 | 3.45 | 0.0197 | 0.686 | 0.227 | –
16 | KLDDVEKEK | 0.404 | 0.292 | 4.77 | ≥ 77.7 | ≥ 59.9 | –
17 | KSIIIPFIAY | 0.968 | 0.249 | 1.37 | ≥ 31.7 | 17.6 | –
18 | DTEDIVSDSK | 7.66 | 1.66 | 15.8 | 3.16 | 0.201 | –
19 | ATSTRHPSK | – | – | – | – | – | Kd (HLA-A*03:01; [3]): 0.000599 µM; Kd (HLA-A*11:01; [3]): 0.0098 µM; Kd (HLA-A*31:01; [3]): 0.623 µM; Kd (HLA-A*33:01; [3]): ≥ 77.7 µM; Kd (HLA-A*68:01; [3]): 0.275 µM
20 | LSEYETMVDY | 5.27 | 16 | ≥ 70 | ≥ 70 | ≥ 70.2 | –
21 | DQYKDLCHMH | – | – | – | – | – | Kd (HLA-A*03:01; [5]): ≥ 70 µM; Kd (HLA-A*11:01; [5]): ≥ 69.7 µM; Kd (HLA-A*31:01; [5]): ≥ 70 µM; Kd (HLA-A*33:01; [5]): ≥ 70 µM; Kd (HLA-A*68:01; [5]): ≥ 70.1 µM
22 | GMDYEEYKSK | 0.0297 | 0.249 | 1.69 | ≥ 36 | ≥ 21.1 | –
23 | CIFAFIDFSK | 0.0184 | 0.00902 | 0.136 | 0.0646 | 0.0461 | –

Row | Sequence | Kd (HLA-A*03:01; [1]) [µM] | Kd (HLA-A*11:01; [1]) [µM] | Kd (HLA-A*31:01; [1]) [µM] | Kd (HLA-A*33:01; [1]) [µM] | Kd (HLA-A*68:01; [1]) [µM] | further results
24 | YLINPNILY | 1.52 | 0.376 | ≥ 77.9 | ≥ 45.1 | 3.24 | –
25 | YSRVNHAKY | 1.53 | ≥ 42.2 | ≥ 73.7 | ≥ 77.7 | 1.19 | –
26 | ASTISWMMK | 0.0315 | 0.000346 | 1.82 | ≥ 38.9 | 0.588 | –
27 | PVLKAMHDK | 0.645 | 0.879 | ≥ 67.4 | ≥ 77.7 | 2.52 | –
28 | PMVIENGILK | 10.2 | 0.216 | ≥ 24.1 | ≥ 70 | 0.292 | –
29 | SMQGAVDINR | – | – | – | – | – | Kd (HLA-A*03:01; [3]): 2.29 µM; Kd (HLA-A*11:01; [3]): 1.16 µM; Kd (HLA-A*31:01; [3]): 0.188 µM; Kd (HLA-A*33:01; [3]): 0.47 µM; Kd (HLA-A*68:01; [3]): 0.142 µM
30 | IILARNEEGR | 9.52 | ≥ 24.3 | 0.0712 | 0.344 | 1.16 | –
31 | RSKQKIGDLR | 3.83 | 14 | 0.0483 | 12.7 | 1.3 | –
32 | ESKAKQLCY | ≥ 78 | ≥ 77.9 | ≥ 77.9 | ≥ 77.7 | 15.9 | –
33 | IVSLCPTKK | 0.359 | 0.0541 | 1.61 | 7.69 | 0.912 | –
34 | TYLGPQFCK | – | – | – | – | – | Kd (HLA-A*03:01; [6]): 0.156 µM; Kd (HLA-A*11:01; [6]): 0.0133 µM; Kd (HLA-A*31:01; [6]): 5.08 µM; Kd (HLA-A*33:01; [6]): 0.31 µM; Kd (HLA-A*68:01; [6]): 0.0323 µM
35 | NQILEENVEV | – | – | – | – | – | Kd (HLA-A*02:06; source organism: Dengue virus 2 Jamaica/1409/1983): 0.0561 µM
36 | GLLDSIKMIY | 0.0459 | 3.41 | 1.54 | 2.91 | 0.818 | –
37 | MQGAVDINR | – | – | – | – | – | Kd (HLA-A*03:01; [3]): ≥ 23.1 µM; Kd (HLA-A*11:01; [3]): 0.631 µM; Kd (HLA-A*31:01; [3]): 0.412 µM; Kd (HLA-A*33:01; [3]): ≥ 37.4 µM; Kd (HLA-A*68:01; [3]): 0.344 µM
38 | VIENGILKK | 0.438 | 0.0296 | 12.9 | ≥ 77.7 | 1.83 | –
39 | RCHDHYLCRH | – | – | – | – | – | Kd (HLA-A*03:01; [7]): ≥ 46.8 µM; Kd (HLA-A*11:01; [7]): ≥ 69.7 µM; Kd (HLA-A*31:01; [7]): 14.4 µM; Kd (HLA-A*33:01; [7]): ≥ 70 µM; Kd (HLA-A*68:01; [7]): ≥ 70.1 µM
40 | NSKYSYELY | ≥ 33 | 10.4 | ≥ 51.1 | ≥ 46.7 | 0.0102 | –
41 | VIRLLIWAY | 12.9 | 1.93 | 1.22 | 12.4 | 5.93 | –
42 | QLLRLMADK | 0.0619 | 0.349 | 2.57 | ≥ 46.2 | ≥ 21.9 | –
43 | VFGSTMNNK | – | – | – | – | – | Kd (HLA-A*03:01; [3]): 4.34 µM; Kd (HLA-A*11:01; [3]): 2.51 µM; Kd (HLA-A*31:01; [3]): 2.63 µM; Kd (HLA-A*33:01; [3]): ≥ 43.7 µM; Kd (HLA-A*68:01; [3]): 4.46 µM
44 | SSSVDVDIY | ≥ 65.3 | ≥ 43.7 | 2.73 | ≥ 72.7 | 2.95 | –
45 | ITGNNIILSK | 0.00351 | 0.000713 | 2.46 | 2 | 0.00762 | –
46 | NVFKAMETFK | 0.0272 | 0.0137 | 0.063 | 0.234 | 0.00132 | –

Row | Sequence | Kd (HLA-A*03:01; [1]) [µM] | Kd (HLA-A*11:01; [1]) [µM] | Kd (HLA-A*31:01; [1]) [µM] | Kd (HLA-A*33:01; [1]) [µM] | Kd (HLA-A*68:01; [1]) [µM] | further results
47 | STIANSNIIK | 0.251 | 0.000545 | 1.13 | 19.5 | 0.0161 | –
48 | IMDKEQLLK | 0.0102 | 0.022 | 1.13 | 6.38 | 1.11 | –
49 | KQIANQFNK | – | – | – | – | – | Kd (HLA-A*03:01; [3]): 0.108 µM; Kd (HLA-A*11:01; [3]): 0.138 µM; Kd (HLA-A*31:01; [3]): 0.0242 µM; Kd (HLA-A*33:01; [3]): ≥ 77.7 µM; Kd (HLA-A*68:01; [3]): 9.99 µM
50 | LVKSYSLIR | 15.6 | 1.49 | 0.0184 | 1.69 | 0.816 | –
51 | DIDILQTNSR | 0.0638 | ≥ 27.3 | 0.711 | 0.314 | 0.839 | –
52 | CSKHMDARY | 19.1 | 10.1 | ≥ 45.2 | ≥ 77.7 | 18.7 | –
53 | TAKVIKLVK | ≥ 52.3 | 0.985 | 19.9 | ≥ 77.7 | 4.91 | –
54 | RASTTENAAY | 13.4 | 0.564 | 2.09 | ≥ 70 | 4.63 | –
55 | MLFTSTNDK | 0.00547 | 0.02 | 18.4 | ≥ 77.7 | 0.0262 | –
56 | DVDTSASEIK | 4.43 | 2.63 | ≥ 27.1 | 18.8 | 0.135 | –
57 | IFVSLVKKNK | 0.365 | 1.86 | 0.0691 | 0.055 | 0.0563 | –
58 | ILKINSVKY | 0.831 | 16.2 | 1.31 | 12.9 | 1.82 | –
59 | SILSLETVK | 0.0249 | 0.00415 | 2.61 | 18.5 | 0.515 | –
60 | GVTSSGAIYK | 0.181 | 0.0459 | 1.35 | ≥ 10 | 0.0813 | –
61 | SFKLILAEY | ≥ 76.9 | 13.5 | 0.681 | 11.7 | ≥ 26 | –
62 | YAKKFKTGMH | – | – | – | – | – | Kd (HLA-A*03:01; [8]): ≥ 70 µM; Kd (HLA-A*11:01; [8]): ≥ 69.7 µM; Kd (HLA-A*31:01; [8]): ≥ 28.2 µM; Kd (HLA-A*33:01; [8]): ≥ 29.2 µM; Kd (HLA-A*68:01; [8]): ≥ 70.1 µM
63 | VSLVKKNKKR | ≥ 30.5 | 6.45 | 0.324 | 6.89 | ≥ 47.8 | –
64 | VVIGLLFMI | – | – | – | – | – | Kd (HLA-A*02:06; [2]): 0.00561 µM
65 | FLRSIAMLK | 0.00204 | 0.213 | 0.153 | 0.611 | 0.107 | –
66 | ELYDTSPTKR | 0.756 | 10.5 | 1.85 | 0.142 | 0.00152 | –
67 | KSINKVYGR | 0.368 | 0.00238 | 0.00104 | 3.41 | 0.0154 | –
68 | RVPRNLTLSK | – | – | – | – | – | Kd (HLA-A*03:01; [3]): 0.0124 µM; Kd (HLA-A*11:01; [3]): 0.00833 µM; Kd (HLA-A*31:01; [3]): 0.767 µM; Kd (HLA-A*33:01; [3]): ≥ 70 µM; Kd (HLA-A*68:01; [3]): 2.1 µM
